Laboratory results reported in article PMC6751202, “An aggregon in conductin/axin2 regulates Wnt/β-catenin signaling and holds potential for cancer therapy” (Nature Communications, 2019).

Target: the molecule itself
Assay: native gel or EMSA; recombinant GST-RGS Cdt and GST-RGS Cdt QV-PS purified from bacteria; PAGE under non-denaturing conditions, Western blot

B1: GST-RGS Cdt (domain or fragment, mouse, UniProt O88566 67-208, looked up)
chain: GRASPDSPLTRWTKSLHSLLGDQDGAYLFRTFLEREKCVDTLDFWFACNGFRQMNLKDTKTLRVAKAIYKRYIENNSVVSKQLKPATKTYIRDGIKKQQIGSVMFDQAQTEIQAVMEENAYQVFLTSDIYLEYVRSGGENTA
notes: RGS domain of mouse conductin/axin2, amino acids 67-208; Cloned into pGEX-6P-1, which as far as I know puts GST at the N-terminus; GST itself can dimerise; also called isolated conductin RGS domain; recombinant GST-RGS Cdt; source: Rosetta (DE3) bacteria, purified (glutathione beads, eluted with free glutathione)
B1: binds.
